Measurements reported in paper PMC11795597, “The NADH-dependent flavin reductase ThdF follows an ordered sequential mechanism though crystal structures reveal two FAD molecules in the active site” (The Journal of Biological Chemistry, 2024).
Each block holds one molecule with its values, some of them ahead of it.

Tests used:
ThdF [1] = molecular target: T1, ThdF (Streptomyces albogriseolus, UniProt A0A1B1V585); assay: steady-state product inhibition kinetics; type: biochemical
ThdF [2] = molecular target: T1, ThdF; assay: steady-state inhibition kinetics (NADH turnover at […] nm); type: biochemical
ThdF [3] = molecular target: T2, ThdF (Streptomyces albogriseolus, UniProt A0A1B1V585); assay: fluorescence anisotropy; crystal structures ([…] and […] Å) with two FAD per chain; type: binding
T2 construct: apoThdF (full length) for Kd; elastase-digested ThdF, residues about 7-167 built, for crystals
T2 sequence (A0A1B1V585 1-193): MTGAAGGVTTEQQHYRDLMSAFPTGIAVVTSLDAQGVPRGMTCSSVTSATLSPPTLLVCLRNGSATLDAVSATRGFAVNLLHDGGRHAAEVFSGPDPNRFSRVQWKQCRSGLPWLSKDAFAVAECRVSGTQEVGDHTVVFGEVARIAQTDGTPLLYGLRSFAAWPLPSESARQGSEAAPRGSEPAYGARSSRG

[4] = molecular target: ThdF after in situ proteolysis with elastase, as crystallised (crystal forms 1 and 2) (Streptomyces albogriseolus); assay: crystal structure; ThdF with elastase (in situ proteolysis), sitting drop, 20 °C; crystal form 1 (P212121) and form 2 (P21) with two FAD per chain, and form 1 soaked with NADH and dithionite; four molecules per asymmetric unit
[5] = substrate: Cc1cc2nc3c(=O)[nH]c(=O)nc-3n(C[C@H](O)[C@H](O)[C@H](O)COP(=O)(O)O)c2cc1C; assay: steady-state kinetics, KM as variable substrate; type: biochemical, Streptomyces albogriseolus; conditions: NADH
[6] = molecular target: the molecule itself; assay: crystal structure; full-length ThdF without protease, initial screening, 2.9 Å; not fully refined and not deposited
purified protein = substrate: NC(=O)C1=CN([C@@H]2O[C@H](COP(=O)(O)OP(=O)(O)OC[C@H]3O[C@@H](n4cnc5c(N)ncnc54)[C@H](O)[C@@H]3O)[C@@H](O)[C@H]2O)C=CC1; assay: purified protein

Molecule: NC(=O)c1ccc[n+]([C@@H]2O[C@H](COP(=O)([O-])OP(=O)(O)OC[C@H]3O[C@@H](n4cnc5c(N)ncnc54)[C@H](O)[C@@H]3O)[C@@H](O)[C@H]2O)c1 [NAD^+]
- steady-state product inhibition kinetics (ThdF [1]): For both substrates, NAD^+ was found to produce a noncompetitive inhibition pattern

Molecule: NC(=O)c1ccc[n+]([C@@H]2O[C@H](COP(=O)([O-])O)[C@@H](O)[C@H]2O)c1 [NMN]
- steady-state inhibition kinetics (NADH turnover at 340 nm) (ThdF [2]): The NADH-dependent measurement with NMN showed intersecting lines on the ordinate, confirming competitive inhibition toward NADH

- Kd (ThdF [3]): 6.8 ± 0.2 µM
Molecule: Cc1cc2nc3c(=O)[nH]c(=O)nc-3n(C[C@H](O)[C@H](O)[C@H](O)COP(=O)(O)OP(=O)(O)OC[C@H]3O[C@@H](n4cnc5c(N)ncnc54)[C@H](O)[C@@H]3O)c2cc1C [FAD]

- stoichiometry N [4]: 2
Molecule: ThdF after in situ proteolysis with elastase, as crystallised (crystal forms 1 and 2) (from UniProt A0A1B1V585 6-171) (domain or fragment)

Molecule: Nc1ncnc2c1ncn2[C@@H]1O[C@H](COP(=O)(O)O)[C@@H](O)[C@H]1O [AMP]
- steady-state inhibition kinetics (NADH turnover at 340 nm) (ThdF [2]): The lines intersecting on the ordinate indicate competitive inhibition of NADH by AMP.

B1: NADH-dependent flavin reductase ThdF from Streptomyces albogriseolus, full length, His6-tag removed by TEV protease (enzyme, UniProt A0A1B1V585 1-193, looked up)
chain: MTGAAGGVTTEQQHYRDLMSAFPTGIAVVTSLDAQGVPRGMTCSSVTSATLSPPTLLVCLRNGSATLDAVSATRGFAVNLLHDGGRHAAEVFSGPDPNRFSRVQWKQCRSGLPWLSKDAFAVAECRVSGTQEVGDHTVVFGEVARIAQTDGTPLLYGLRSFAAWPLPSESARQGSEAAPRGSEPAYGARSSRG
notes: flavin reductase ThdF of the thienodoline biosynthetic gene cluster, Streptomyces albogriseolus; 193 residues (truncation to 1-168 removed amino acids 169-193); residual amino acids from TEV protease digestion are left at the N terminus; Codon-optimised synthetic gene in pETM-11; copurifies with FAD (occupancy about 124%); the PDB entries 9fd4-9fd6 come from this protein after elastase digestion; …
- Km [5]: 0.28 ± 0.07 µM
- kcat [5]: 0.2 ± 0.08 s⁻¹
- stoichiometry N [6]: 2

B2: ThdF (Streptomyces albogriseolus) (protein)
chain: GGVTTEQQHYRDLMSAFPTGIAVVTSLDAQGVPRGMTCSSVTSATLSPPTLLVCLRNGSATLDAVSATRGFAVNLLHDGGRHAAEVFSGPDPNRFSRVQWKQCRSGLPWLSKDAFAVAECRVSGTQEVGDHTVVFGEVARIAQTDGTPLLYGLRSFAAWPLPSESA
- Km (purified protein): 19.5 ± 5.6 µM
- kcat (purified protein; FAD binds instead of the stacked FAD, R16 contacts the NMN ribose, H136 of the GDH motif the nicotinamide, S48 of the second protomer): 0.26 s⁻¹
